Results reported in US20150274808A1 (Biogen, published 2015).

Target: T1, human antigen that binds to mAb1 (human LINGO-1) (human, UniProt Q96FE5 42-538, limits assumed)
T1 sequence (looked up): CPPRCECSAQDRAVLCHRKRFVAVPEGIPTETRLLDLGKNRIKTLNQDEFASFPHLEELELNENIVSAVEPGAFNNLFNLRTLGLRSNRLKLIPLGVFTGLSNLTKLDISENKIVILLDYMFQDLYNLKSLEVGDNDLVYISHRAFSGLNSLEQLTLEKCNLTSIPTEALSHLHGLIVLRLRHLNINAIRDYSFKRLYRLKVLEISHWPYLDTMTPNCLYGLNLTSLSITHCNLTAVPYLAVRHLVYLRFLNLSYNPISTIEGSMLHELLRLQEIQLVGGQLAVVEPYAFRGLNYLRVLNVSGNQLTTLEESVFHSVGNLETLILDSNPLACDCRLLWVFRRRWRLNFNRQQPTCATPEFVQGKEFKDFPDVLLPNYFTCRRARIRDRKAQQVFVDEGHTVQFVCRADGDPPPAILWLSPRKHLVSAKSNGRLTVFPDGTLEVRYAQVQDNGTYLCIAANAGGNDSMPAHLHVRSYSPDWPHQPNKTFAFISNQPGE
Experiment: direct binding ELISA on plate-coated human antigen; preparation with 39% trisulfide at LC5-HC5
Experimental: Costar 96-well easy wash plates were coated overnight with 5 μg/mL human antigen that binds to mAb1 (50 μL/well), in 50 mM sodium carbonate (pH 9.5) at 4° C. Plates were washed 3 times with 350 μL of PBS using a plate washer and blocked with 1% BSA, 0.1% ovalbumin, and 0.1% non-fat dry milk in Hank's balanced salt buffer containing 25 mM HEPES (pH 7.0) for 1 hour at room temperature. Plates were then washed again, and incubated for 1 h with a 3-fold dilution series set up for each test compound (50 μL/well, 8 dilutions) starting at 10 μg/mL and all in 0.1% BSA, 0.1% ovalbumin, and 0.1% non-fat dry milk in Hank's balanced salt buffer containing 25 mM HEPES (pH 7.0), and again washed. Bound mAb1 was detected using AP-anti-human Fab. […] Plates were read at 405 nm on a Molecular Devices plate reader. EC₅₀ values for binding were calculated from the titration curve using prism software. The function of mAb2 was assessed as for mAb1 except that 96 well microplates were coated overnight at 4° C. with 1 μg/mL (in 15 mM Na₂CO₃, 35 mM NaHCO₃, pH 9.6) of a human antigen that binds to mAb2. […] Binding was determined using a horseradish peroxidase-conjugated goat anti-human polyclonal antibody (Jackson ImmunoResearch, West Grove, Pa.) followed by measurement of horse radish peroxidase activity using the substrate tetramethylbenzidine.

B1: anti-LINGO-1 antibody Li81 (antibody, V domains shown)
VH: EVQLLESGGGLVQPGGSLRLSCAASGFTFSAYEMKWVRQAPGKGLEWVSVIGPSGGFTFYADSVKGRFTISRDNSKNTLYLQMNSLRAEDTAVYYCATEGDNDAFDIWGQGTTVTVSS
VL: DIQMTQSPATLSLSPGERATLSCRASQSVSSYLAWYQQKPGQAPRLLIYDASNRATGIPARFSGSGSGTDFTLTISSLEPEDFAVYYCQQRSNWPMYTFGQGTKLEIK
notes: Tested as an aglycosyl human IgG1 made in CHO cells; They differ only in the share of trisulfide at the light-heavy (LC5-HC5) interchain bond; also called mAb1; Mab1
EC50: 20 pM
